Changes are numbered by the printed parent chain.
B1: SEQ ID NO 60 (receptor)
chain: MGHLPKPTLWAEPGSVITMDQPVTLRCQGGQETQEYRLYREKKTAPWITRIPQELVKKGQFPIPSITWEHAGRYRCIGRSQTSQWSASSDPLELVVTGIYLAPTLSAQPSPVVNSGGNVTLQCDSQVAFDGFILCKEGEDEHPQCLNSQPHARGSSRAIFSVGPVSPSRRWWYRCYAYDSNSPYEWSLPSDLLELLVL
B2: SEQ ID NO 61 (receptor)
chain: B1 chain with M19L, D20G
B3: SEQ ID NO 6 (receptor)
chain: MGHLPKPTLWAEPGSVITMGQPVTLRCQGGQETQEYRLYREKKTAPWITRIPQELVKKGQFPIPSITWEHAGRYRCYYGSDTAGRSESSDPLELVVTGAYIKPTLSAQPSPVVNSGGNVTLQCDSQVAFDGFILCKEGEDEHPQCLNSQPHARGSSRAIFSVGPVSPSRRWWYRCYAYDSNSPYEWSLPSDLLELLVL
B4: SEQ ID NO 28 (receptor)
chain: B3 chain with M19Q, Q21S, D81Q, T82G, A83G, G84L
B5: SEQ ID NO 55 (receptor)
chain: B3 chain with M19Q, Q21S, A99I, I101Q
B6: SEQ ID NO 35 (receptor)
chain: B3 chain with M19Q, Q21S, A99I, I101R, K102Q
B7: SEQ ID NO 30 (receptor)
chain: B3 chain with M19Q, Q21S, Y77M, Y78Q, G79Y, S80T, D81L
B8: SEQ ID NO 51 (receptor)
chain: B3 chain with M19Q, Q21S, A99I, I101Q, K102R, S168G
B9: SEQ ID NO 57 (receptor)
chain: B3 chain with M19L, A99I, I101L, K102A
B10: SEQ ID NO 53 (receptor)
chain: B3 chain with M19Q, Q21S, A99I, I101L, K102Q, S168G
B11: SEQ ID NO 36 (receptor)
chain: B3 chain with M19Q, Q21S, A99I, I101L, K102A
B12: SEQ ID NO 41 (receptor)
chain: B3 chain with M19V, A99V, S168G
B13: SEQ ID NO 52 (receptor)
chain: B3 chain with M19Q, Q21S, A99I, I101Q, K102A, S168G
B14: SEQ ID NO 54 (receptor)
chain: B3 chain with M19Q, Q21S, A99I, I101K, K102Q, S168G
B15: SEQ ID NO 56 (receptor)
chain: B3 chain with G20D, A99I, I101L, K102A
B16: SEQ ID NO 39 (receptor)
chain: B3 chain with M19Q, Q21A, A99V, S168G
B17: SEQ ID NO 22 (receptor)
chain: B3 chain with M19L, G20S, A99V
B18: SEQ ID NO 24 (receptor)
chain: B3 chain with M19Q, Q21S, D81Q, T82G, A83G, G84L, A99V
B19: SEQ ID NO 7 (receptor)
chain: B3 chain with G20D, A99V, S168G
B20: SEQ ID NO 29 (receptor)
chain: B3 chain with M19Q, Q21S, S80T, D81Q
B21: SEQ ID NO 47 (receptor)
chain: B3 chain with M19Q, Q21S, S80G, D81Q, T82E, A83G, G84A, A99V
B22: SEQ ID NO 48 (receptor)
chain: B3 chain with M19Q, Q21S, Y77Q, Y78G, G79V, D81Q, A99V
B23: SEQ ID NO 58 (receptor)
chain: B1 chain with I77Y, G78Y, R79G, Q81D
B24: SEQ ID NO 42 (receptor)
chain: B3 chain with M19L, A99V, S168G
B25: SEQ ID NO 8 (receptor)
chain: B3 chain with M19L, G20M
B26: SEQ ID NO 21 (receptor)
chain: B3 chain with M19L, G20F
B27: SEQ ID NO 23 (receptor)
chain: B3 chain with W10Q, M19Q, Q21S, Y77V, Y78I, G79Q, S80R, D81G, A99V
B28: SEQ ID NO 45 (receptor)
chain: B3 chain with M19Q, Q21S, Y77V, Y78G, G79W, S80A, D81V, A99V
B29: SEQ ID NO 59 (receptor)
chain: B1 chain with M19L, D20G, I77Y, G78Y, R79G, Q81D
B30: SEQ ID NO 40 (receptor)
chain: B3 chain with M19Q, Q21R, A99V
B31: SEQ ID NO 27 (receptor)
chain: B3 chain with M19Q, Q21S, A83S, G84Q, R85W, E87A, A99V
B32: SEQ ID NO 25 (receptor)
chain: B3 chain with M19Q, Q21S, S80T, D81Q, A99V
B33: SEQ ID NO 31 (receptor)
chain: B3 chain with G20D, D81Q, T82G, A83G, G84L, A99V, S168G
B34: SEQ ID NO 37 (receptor)
chain: B3 chain with M19Q, Q21S, A99I, I101K, K102A
B35: SEQ ID NO 32 (receptor)
chain: B3 chain with G20D, S80T, D81Q, A99V, S168G
B36: SEQ ID NO 26 (receptor)
chain: B3 chain with M19Q, Q21S, Y77M, Y78Q, G79Y, S80T, D81L, A99V
B37: SEQ ID NO 44 (receptor)
chain: B3 chain with M19Q, Q21S, I66V, A99V
B38: SEQ ID NO 9 (receptor)
chain: B3 chain with G20Q, Q21R, K42R, N147S
B39: SEQ ID NO 50 (receptor)
chain: B3 chain with M19Q, Q21S, A99I, I101K, K102A, S168G
B40: SEQ ID NO 38 (receptor)
chain: B3 chain with M19Q, Q21S, A99I, I101Q, K102A
B41: SEQ ID NO 34 (receptor)
chain: B3 chain with G20D, Y77M, Y78Q, G79Y, S80T, D81L, A99V
B42: SEQ ID NO 43 (receptor)
chain: B3 chain with M19Q, Q21S, A99V, S168G
B43: SEQ ID NO 33 (receptor)
chain: B3 chain with G20D, Y77V, Y78I, G79Q, S80R, D81G, A99V
B44: SEQ ID NO 49 (receptor)
chain: B3 chain with M19Q, Q21S, W47Q, A99V, I101V, K102A, S168G
B45: SEQ ID NO 62 (receptor)
chain: MHLPKPTLWAEPGSVITMDQPVTLRCQGGQETQEYRLYREKKTAPWITRIPQELVKKGQFPIPSITWEHAGRYRCYYGSDTSQWSASSDPLELVVTGVYIKPTLSAQPSPVVNSGGNVTLQCDSQVAFDGFILCKEGEDEHPQCLNSQPHARGSSRAIFSVGPVSPSRRWWYRCYAYDSNSPYEWSLPSDLLELDVDG
B46: SEQ ID NO 66 (receptor)
chain: B45 chain with M18L, D19G
B47: SEQ ID NO 63 (receptor)
chain: B45 chain with W171R
B48: SEQ ID NO 64 (receptor)
chain: B45 chain with R49L, E140G, R173W
B49: SEQ ID NO 65 (receptor)
chain: B45 chain with K41R
B50: SEQ ID NO 67 (receptor)
chain: B45 chain with M18L, D19G, Q20S

These binders were tested against HLA-A*0201 loaded with the Carcinoembryonic antigen (CEA)-derived … peptide (biotinylated on the C-terminal biotinylation tag) (assay: SPR (Biacore), Example 4).

Kd [nM] | koff [s⁻¹] | Binder
≤ 1000 | ≤ 2 | B1
≤ 1000 | ≤ 2 | B2
≤ 1000 | ≤ 2 | B3
≤ 1000 | ≤ 2 | B4
≤ 1000 | ≤ 2 | B5
≤ 1000 | ≤ 2 | B6
≤ 1000 | ≤ 2 | B7
≤ 1000 | ≤ 2 | B8
≤ 1000 | ≤ 2 | B9
≤ 1000 | ≤ 2 | B10
≤ 1000 | ≤ 2 | B11
≤ 1000 | ≤ 2 | B12
≤ 1000 | ≤ 2 | B13
≤ 1000 | ≤ 2 | B14
≤ 1000 | ≤ 2 | B15
≤ 1000 | ≤ 2 | B16
≤ 1000 | ≤ 2 | B17
≤ 1000 | ≤ 2 | B18
≤ 1000 | ≤ 2 | B19
≤ 1000 | ≤ 2 | B20
≤ 1000 | ≤ 2 | B21
≤ 1000 | ≤ 2 | B22
≤ 1000 | ≤ 2 | B23
≤ 1000 | ≤ 2 | B24
≤ 1000 | ≤ 2 | B25

Kd [nM] | koff [s⁻¹] | Binder
≤ 1000 | ≤ 2 | B26
≤ 1000 | ≤ 2 | B27
≤ 1000 | ≤ 2 | B28
≤ 1000 | ≤ 2 | B29
≤ 1000 | ≤ 2 | B30
≤ 1000 | ≤ 2 | B31
≤ 1000 | ≤ 2 | B32
≤ 1000 | ≤ 2 | B33
≤ 1000 | ≤ 2 | B34
≤ 1000 | ≤ 2 | B35
≤ 1000 | ≤ 2 | B36
≤ 1000 | ≤ 2 | B37
≤ 1000 | ≤ 2 | B38
≤ 1000 | ≤ 2 | B39
≤ 1000 | ≤ 2 | B40
≤ 1000 | ≤ 2 | B41
≤ 1000 | ≤ 2 | B42
≤ 1000 | ≤ 2 | B43
≤ 1000 | ≤ 2 | B44
≤ 1000 | ≤ 2 | B45
≤ 1000 | ≤ 2 | B46
≤ 1000 | ≤ 2 | B47
≤ 1000 | ≤ 2 | B48
≤ 1000 | ≤ 2 | B49
≤ 1000 | ≤ 2 | B50
